The results in this text go back to patent publication US20020127645A1.

This assay addresses dimeric mouse-human chimeric IgA1 specific for the hapten dansyl (human) (UniProt P01876). The assay is described as follows: densitometry of secreted proteins after immunoprecipitation and SDS-PAGE.
Chain of UniProt P01876 (P01876 other isoform, or with tags, fused parts or gaps mutant, chain 1 of 2, other chains not shown): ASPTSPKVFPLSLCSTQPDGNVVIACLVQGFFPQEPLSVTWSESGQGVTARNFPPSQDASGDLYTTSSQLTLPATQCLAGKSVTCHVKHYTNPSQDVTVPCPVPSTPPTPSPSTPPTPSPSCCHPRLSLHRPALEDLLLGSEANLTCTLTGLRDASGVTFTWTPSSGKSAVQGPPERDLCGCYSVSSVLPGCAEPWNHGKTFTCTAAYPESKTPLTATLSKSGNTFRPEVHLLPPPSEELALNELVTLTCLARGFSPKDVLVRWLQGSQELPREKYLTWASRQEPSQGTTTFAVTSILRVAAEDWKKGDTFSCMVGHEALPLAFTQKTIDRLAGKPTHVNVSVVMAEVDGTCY

The substance “human secretory component (SC), ectoplasmic domain of the human polymeric Ig receptor (pIgR) ending at Glu589 (from UniProt P01833 19-607)” registered a α chains per molecule of SC (stoichiometry) (α chains per SC) of 4.
